# Source: patent US20210230264A1 (JIANGSU QYUNS THERAPEUTICS, published 2021)
# Legend:
# [1] = molecular target: T1, human Interleukin-17A (hIL-17A) (human, UniProt Q16552 24-154); experiment: SPR, Biacore T200, 25 C, antibody captured on Protein A CM5 chip, hIL-17A in flow, 1:1 model, mean of two runs
# T1 construct: also called hIL-17A standard
# Description: The Protein A was chemically coupled to the CM5 chip, and an appropriate amount of antibody was immobilized by the capture method, so that the Rmax was less than 50 RU, and the capture flow rate was 10 μl/min. The antigen was gradually diluted, and the flow rate of the instrument was switched to 30 μl/min. The diluted antigen was flowed through the reference channel and the channel of immobilized antibody in sequence from low to high concentration, and the running buffer was flowed through as a negative control. After each binding and dissociation was completed, the chip was regenerated with glycine, pH1.5. Fitting was performed with the build-in software in the instrument according to a 1:1 binding model. The association rate constant kₐ, the dissociation rate constant kd, and the equilibrium dissociation constant KD values of the antibody were calculated.
# [2] = molecular target: T1, human Interleukin-17A (hIL-17A); experiment: cell-based or functional assay
# T1 sequence (Q16552 24-154): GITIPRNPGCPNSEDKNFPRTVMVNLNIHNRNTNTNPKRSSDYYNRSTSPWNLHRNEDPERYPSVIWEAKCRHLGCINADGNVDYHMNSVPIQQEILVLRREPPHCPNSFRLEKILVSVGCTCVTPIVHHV
Kd [1],koff [1],kon [1],IC50 (read off the curve) [2],Binder
0.0154 nM,2.58e-05 s⁻¹,1.7e+06 M⁻¹ s⁻¹,–,"Ixekizumab (IXE) (antibody, V domains shown) VH: QVQLVQSGAEVKKPGSSVKVSCKASGYSFTDYHIHWVRQAPGQGLEWMGVINPMYGTTDYNQRFKGRVTITADESTSTAYMELSSLRSEDTAVYYCARYDYFTGTGVYWGQGTLVTVSS VL: DIVMTQTPLSLSVTPGQPASISCRSSRSLVHSRGNTYLHWYLQKPGQSPQLLIYKVSNRFIGVPDRFSGSGSGTDFTLKISRVEAEDVGVYYCSQSTHLPFTFGQGTKLEIKR"
0.00707 nM,–,–,~0.02 µg/mL,"anti-human interleukin 17A monoclonal antibody QX002N (antibody, human IgG1, kappa, V domains shown, Claim 27 joins 7/8 with 10/11; Expressed in ExpiCHO-S cells and purified on Protein A; also called 37-5; humanized clone 37 #) VH: EVQLQESGPGLVKPSETLSLTCTVSGIDLSLFYMSWIRQPPGKGLEWIGTIHEVASSYYASWAKGRVTISKDTSKNQFSLKLSSVTAADTAVYYCARETYSSRYPYPNIWGQGTLVTVSS VL: DIQMTQSPSSVSASVGDRVTITCQASQNIGGSLAWYQQKPGKAPKLLIYGASSLASGVPSRFSGSGSGTDFTLTISSLQPEDFATYYCQSYNTISTYGLAFGGGTKVEIKR"
